Measured values: patent publication US9193963B2, “Mutant endoglucanase” (Toray Industries, Inc., priority 2011, dated 2015)
Changes are numbered by the printed parent chain.

B1: EGAc Wild-type: Acidthermus cellulolyticus-derived endoglucanase, SEQ ID NO: 31, parent endoglucanase (protein)
chain: MPRALRRVPGSRVMLRVGVVVAVLALVAALANLAVPRPARAAGGGYWHTSGREILDANNVPVRIAGINWFGFETCNYVVHGLWSRDYRSMLDQIKSLGYNTIRLPYSDDILKPGTMPNSINFYQMNQDLQGLTSLQVMDKIVAYAGQIGLRIILDRHRPDCSGQSALWYTSSVSEATWISDLQALAQRYKGNPTVVGFDLHNEPHDPACWGCGDPSIDWRLAAERAGNAVLSVNPNLLIFVEGVQSYNGDSYWWGGNLQGAGQYPVVLNVPNRLVYSAHDYATSVYPQTWFSDPTFPNNMPGIWNKNWGYLFNQNIAPVWLGEFGTTLQSTTDQTWLKTLVQYLRPTAQYGADSFQWTFWSWNPDSGDTGGILKDDWQTVDTVKDGYLAPIKSSIFDPVGASASPSSQPSPSVSPSPSPSPSASRTPTPTPTPTASPTPTLTPTATPTPTASPTPSPTAASGARCTASYQVNSDWGNGFTVTVAVTNSGSVATKTWTVSWTFGGNQTITNSWNAAVTQNGQSVTARNMSYNNVIQPGQNTTFGFQASYTGSNAAPTVACAAS
modifications: Acidthermus cellulolyticus EGAc
B2: EGPa Wild-type: Pyrococcus abyssi-derived endoglucanase, SEQ ID NO: 25, parent endoglucanase (protein)
chain: MEIKLFCVFIVFIILFSPFVIALSYPDVNYTAENGIIFVQNVTTGEKKPLYLHGVSWFGFELKDHVVYGLDKRNWKDILKDVKRLGFNAIRLPFCSESIRPDTRPSPERINYELNPDLKNLTSLEIMEKIIEYANSIGLYILLDYHRIGCEEIEPLWYTENYSEEQYIKDWIFLAKRFGKYPNVIGADIKNEPHGEAGWGTGDERDFRLFAEKVGREILKVAPHWLIFVEGTQYTHVPNIDEIIEKKGWWTFWGENLMGVKDYPVRLPRGKVVYSPHVYGPSVYMMDYFKSPDFPNNMPIIWETHFGYLTDLNYTLVIGEWGGNYEGLDKVWQDAFVKWLIKKKIYNFFYWCLNPESGDTGGIFLDDWKTVNWEKMRVIYRLIKAANPEFEEPLYIILKTNATTSILGVGERIRIYWYTNGKVIDSNFAHSSEGEMNITVTKSMTLYIIVKKGNQTLRKELKLYVIGGNYGSNISTTQLVTPKKGGERISTSLKLAISLLFILLFVWYLLREKH
modifications: Pyrococcus abyssi EGPa
B3: EGPa Mutant: mutant EGPa, SEQ ID NO: 26; residue corresponding to 273rd tryptophan substituted with alanine (protein)
chain: B2 chain with W253A
modifications: Pyrococcus abyssi EGPa W253A
notes: residue corresponding to 273rd tryptophan substituted with alanine

Experiments:
[1] = Saccharification of lignocellulose 1 with Celluclast and endoglucanase; format: biochemical, Rice straw; details: 5 wt % Lignocellulose 1, pH 5.2, 50° C., 24 hours; 1.0 mg/mL cellulase + 0.1 mg/mL endoglucanase
Description: (§1) Rice straw was used as cellulose. The cellulose was added to a small reactor (Taiatsu Techno Corporation, TVS-N2 (30 ml)), and then cooled with liquid nitrogen. An ammonia gas was fed to the reactor, thereby completely immersing the sample in the liquid ammonia. The reactor was closed using its lid, and then left to stand at room temperature for 15 minutes. Subsequently, treatment was performed for 1 hour in an oil bath at 150° C. After treatment, the reactor was removed from the oil bath, an ammonia gas leak was immediately performed within a draft chamber. The reactor was vacuumed using a vacuum pump to 10 Pa for drying. The resultant was used as lignocellulose 1 in the following examples.
(§2) The changes in the amount of glucose generated when the enzyme composition had been caused to act on lignocellulose substrates were compared. The substrates were prepared by suspending 5 wt % lignocelluloses (1 to 3) (prepared in Reference Example 3) in 50 mM acetate buffer (pH5.2). Reactions were performed at 50° C. for 24 hours. The concentrations of the generated glucose were measured after adequate sampling. As a filamentous bacterium-derived cellulase mixture, commercially available Trichoderma reesei-derived cellulase (Celluclast, Sigma) was used. As endoglucanases, the mutant endoglucanases prepared in Example 2 and the wild-type endoglucanases prepared in Reference Example 1 were separately used. The following quantities of enzymes were added: 1.0 mg/mL cellulase, and 0.1 mg/mL endoglucanase (in an amount one tenth that of the cellulase).

[2] = Inhibition experiment with ferulic acid: degradation of phosphoric acid swollen cellulose; format: biochemical; details: enzyme 0.5 μM, 1 hour, 50° C., parent at 0 mM = 100%
Description: (§6) This substance was diluted using buffer and water to obtain a 2 wt % mixture so that the final concentration of sodium acetate was 50 mM (pH 5.2). This was designated as phosphoric acid swollen cellulose and used for the following examples.
The activity of the wild-type and the mutant endoglucanases to degrade phosphoric acid swollen cellulose was measured in the presence of ferulic acid. 1% phosphoric acid swollen cellulose/50 mM acetate buffer (pH 5.2) was used as a substrate. Ferulic acid (Sigma Aldrich) was added at final concentrations of 0, 5, 10, and 15 mM. The enzymes prepared in Reference Example 1 and Example 2 were each added at a final concentration of 0.5 μM, followed by 1 hour of enzymatic reaction at 50° C.

[3] = Saccharification of lignocellulose 3 with Trichoderma reesei culture solution and endoglucanase; format: biochemical, Rice straw; details: Lignocellulose 3, 24 hours; cellulase 1.0 mg/mL + endoglucanase 0.1 mg/mL + β-glucosidase (Novozyme 188) 0.01 mg/mL
Description: (§3) Rice straw was used as cellulose. The cellulose was immersed in water, and then autoclaved with agitation at 180° C. for 20 minutes (Nitto Koatsu Co. Ltd.). Pressure at this time was 10 MPa. After treatment, a solution component (hereinafter, referred to as “hydrothermally treated solution”) and the treated biomass component were subjected to solid-liquid separation by centrifugation (3000 G). The thus treated biomass component was used as lignocellulose 3 for the following examples.
as §2
(§4) Lignocelluloses (1-3) prepared in Reference Example 3 were used as substrates. The Trichoderma reesei culture solution prepared in Reference Example 4 was used as a filamentous bacterium-derived cellulase mixture. Lignocelluloses (1-3) were hydrolyzed in a manner similar to that in Example 7, except for the quantities of the enzymes added: cellulase (1.0 mg/mL); endoglucanase (0.1 mg/mL (in an amount one tenth that of the cellulase); and β-glucosidase (Novozyme 188) (0.01 mg/mL (in an amount one hundredth that of the cellulase).

[4] = Activity to degrade phosphoric acid swollen cellulose; format: biochemical; details: 1% phosphoric acid swollen cellulose, pH 5.2, enzyme 0.5 μM, 1 hour, 50° C.; glucose generated by each parent endoglucanase = 100%
Description: The term “identity” refers to the percentage of amino acid residues identical to and amino acid residues analogous to the other amino acid residues in all the amino acid residues overlapped when an optimum alignment is performed by introducing gaps or no gaps into two amino acid sequences and then aligning the two amino acid sequences. Such an identity can be found using a method known by persons skilled in the art, sequence analysis software, and the like (a known algorithm such as BLAST or FASTA). The term “endoglucanase activity” is as defined above and can be determined by adding an enzyme solution to a substrate solution of phosphoric acid swollen cellulose that has been dissolved in 50 mM acetic acid-sodium acetate buffer (pH 5.2) or the like, performing 1 hour of reaction at 30° C. to 85° C., stopping the reaction by changing the pH if necessary, and then determining the concentration of glucose in the reaction solution using a glucose determination kit, for example.
The mutants obtained in Comparative Example 1 were compared in terms of activity by a technique similar to that in Example 3. The concentration (g/L) of glucose generated by each parent endoglucanase under the above reaction conditions was determined to be 100%.

[5] = Saccharification of lignocellulose 2 with Celluclast and endoglucanase; format: biochemical, Rice straw; details: 5 wt % Lignocellulose 2, pH 5.2, 50° C., 24 hours; 1.0 mg/mL cellulase + 0.1 mg/mL endoglucanase
Description: (§5) Rice straw was used as cellulose. Cellulose was immersed in a 1% aqueous sulfuric acid solution, and then autoclaved for 30 minutes at 150° C. (Nitto Koatsu Co. Ltd.). After treatment, the resultant was subjected to solid-liquid separation into an aqueous sulfuric acid solution (hereinafter, referred to as “dilute-sulfuric-acid-treated solution”) and cellulose treated with sulfuric acid. Next, the cellulose treated with sulfuric acid was mixed and agitated with the dilute-sulfuric-acid-treated solution so that the solid content concentration was 10 wt %. Then the mixture was adjusted to around pH 5 using sodium hydroxide. The resultant was used as lignocellulose 2 for the following examples.
as §2

[6] = Saccharification of lignocellulose 3 with Celluclast and endoglucanase; format: biochemical, Rice straw; details: 5 wt % Lignocellulose 3, pH 5.2, 50° C., 24 hours; 1.0 mg/mL cellulase + 0.1 mg/mL endoglucanase
Description: as §3, §2

[7] = Saccharification of lignocellulose 1 with Trichoderma reesei culture solution and endoglucanase; format: biochemical, Rice straw; details: Lignocellulose 1, 24 hours; cellulase 1.0 mg/mL + endoglucanase 0.1 mg/mL + β-glucosidase (Novozyme 188) 0.01 mg/mL
Description: as §1, §2, §4

[8] = Inhibition experiment with vanillin: degradation of phosphoric acid swollen cellulose; format: biochemical; details: enzyme 0.5 μM, 1 hour, 50° C., parent at 0 mM = 100%
Description: as §6
The activity of the wild-type and the mutant endoglucanases to degrade phosphoric acid swollen cellulose in the presence of vanillin was measured. 1% phosphoric acid swollen cellulose/50 mM acetate buffer (pH 5.2) was used as a substrate. Vanillin (Sigma Aldrich) was added at final concentrations of 0, 5, 10, and 15 mM. The enzymes prepared in Reference Example 1 and Example 2 were added at a final concentration of 0.5 μM, followed by 1 hour of enzymatic reaction at 50° C.

[9] = Saccharification of lignocellulose 2 with Trichoderma reesei culture solution and endoglucanase; format: biochemical, Rice straw; details: Lignocellulose 2, 24 hours; cellulase 1.0 mg/mL + endoglucanase 0.1 mg/mL + β-glucosidase (Novozyme 188) 0.01 mg/mL
Description: as §5, §2, §4

Molecule | Concentration of glucose generated, Celluclast + Wild-type [1] [g/L] | Relative activity to degrade phosphoric acid swollen cellulose ([2]; ferulic acid 0 mM) [%] | Relative activity to degrade phosphoric acid swollen cellulose ([2]; ferulic acid 5 mM) [%] | Relative activity to degrade phosphoric acid swollen cellulose ([2]; ferulic acid 10 mM) [%] | Relative activity to degrade phosphoric acid swollen cellulose ([2]; ferulic acid 15 mM) [%] | Concentration of glucose generated, Culture solution + Wild-type [3] [g/L] | Relative activity [4] [%] | Concentration of glucose generated, Celluclast + Wild-type [5] [g/L] | Concentration of glucose generated, Celluclast + Wild-type [6] [g/L] | Concentration of glucose generated, Culture solution + Wild-type [7] [g/L] | Relative activity to degrade phosphoric acid swollen cellulose ([8]; vanillin 0 mM) [%] | Relative activity to degrade phosphoric acid swollen cellulose ([8]; vanillin 5 mM) [%] | Relative activity to degrade phosphoric acid swollen cellulose ([8]; vanillin 10 mM) [%] | Relative activity to degrade phosphoric acid swollen cellulose ([8]; vanillin 15 mM) [%] | Concentration of glucose generated, Culture solution + Wild-type [9] [g/L] | other results
B1 | 11 | 100 | 65 | 60 | 55 | 8 | 100 | 11 | 11 | 8 | 100 | 50 | 45 | 40 | 8 | 
B2 | 12 | 100 | 60 | 50 | 50 | 8 | 100 | 12 | 11 | 9 | 100 | 40 | 40 | 40 | 9 | 
B3 |  | 100 | 95 | 90 | 90 |  | 100 |  |  |  | 100 | 90 | 90 | 90 |  | Concentration of glucose generated, Celluclast + Mutant [1]: 14 g/L; Concentration of glucose generated, Culture solution + Mutant [3]: 12 g/L; Concentration of glucose generated, Celluclast + Mutant [5]: 16 g/L; Concentration of glucose generated, Celluclast + Mutant [6]: 15 g/L; Concentration of glucose generated, Culture solution + Mutant [7]: 11 g/L; Concentration of glucose generated, Culture solution + Mutant [9]: 13 g/L
